In this data set the test system is Mdj1 (wt, mature). Description: EMSA. As to conditions: EMSA with 0.36 nM 32P-ori5 DNA; buffer, salt, pH and temperature not given (as described in ref 35). On the technique in general: Mobility shift assays separate free from complexed probe on a gel.

From publication PMC3750215 come the findings set out here.

ori5 71 bp fragment: the Kd was determined as 0.21 µM.

As a reminder, the Kd is the free concentration of one partner at which half of the binding sites on the other are occupied at equilibrium, for simple one-to-one binding.
